Where no end group is shown, it is not given here. [ ]: non-standard residue; d: D form. pS = N[C@@H](COP(=O)(O)O)C(=O)O
target: T1, HLA-A*02:01 (human); assay: UV-ligand exchange, anti-b2m ELISA; grade of peptide exchange yield (>10% = +; >20% = ++; >50 = +++; >75% = ++++)
T1 construct: Peptide-receptive HLA-A*02:01 monomer obtained by UV cleavage of a UV-sensitive ligand; captured on streptavidin plates; also called peptide-receptive MHC molecules; MHC class I
From the text: Candidate peptides for T cell based therapies according to the present invention were further tested for their MHC binding capacity (affinity). The individual peptide-MHC complexes were produced by UV-ligand exchange, where a UV-sensitive peptide is cleaved upon UV-irradiation, and exchanged with the peptide of interest as analyzed. Only peptide candidates that can effectively bind and stabilize the peptide-receptive MHC molecules prevent dissociation of the MHC complexes. To determine the yield of the exchange reaction, an ELISA was performed based on the detection of the light chain (β2m) of stabilized MHC complexes. The assay was performed as generally described in Rodenko et al. (Rodenko et al., 2006).
96 well MAXISorp plates (NUNC) were coated over night with 2 ug/ml streptavidin in PBS at room temperature, washed 4× and blocked for 1 h at 37° C. in 2% BSA containing blocking buffer. Refolded HLA-A*02:01/MLA-001 monomers served as standards, covering the range of 15-500 ng/ml. Peptide-MHC monomers of the UV-exchange reaction were diluted 100-fold in blocking buffer. Samples were incubated for 1 h at 37° C., washed four times, incubated with 2 ug/ml HRP conjugated anti-β2m for 1 h at 37° C., washed again and detected with TMB solution that is stopped with […]. Absorption was measured at 450 nm. Candidate peptides that show a high exchange yield (preferably higher than 50%, most preferred higher than 75%) are generally preferred for a generation and production of antibodies or fragments thereof, and/or T cell receptors or fragments thereof, as they show sufficient avidity to the MHC molecules and prevent dissociation of the MHC complexes.

Binder | peptide exchange yield
KILE[pS]LFV[pS]L [KILEJLFVJL] | 50 to 75%
ALPEPSPAA | 50 to 75%
LMAPAPSTV | 50 to 75%
AQLNIGNVLPV | > 75%
QLIEKITQV | 50 to 75%
ALEEANADLEV | 50 to 75%
ILSSACYTV | > 75%
ILFDEVLTFA | > 75%
SLFPYVVLI | > 75%
SLQERQVFL | 50 to 75%
ALMDEINFMKM | > 75%
FLFPAFLTA | > 75%
MLFENMGAYTV | > 75%
KILEMDDPRA | 20 to 50%
SLDGNPLAV | > 75%
GLYGIKDDVFL | > 75%
GLHQDFPSVVL | 50 to 75%
ALASAPTSV | > 75%
SLGNFKDDLL | 50 to 75%
ALWGFFPVLL | > 75%
FVAGYIAGV | > 75%
QLLQYVYNL | > 75%
ALYDAELSQM | 50 to 75%
AQLNLIWQL | > 75%
ALMAGCIQEA | > 75%

Other lines, results leading:

peptide exchange yield | Binder
> 75% | VLDEGLTSV
50 to 75% | YLQNEVFGL
50 to 75% | SLSDIQPCL
> 75% | YVMESMTYL
20 to 50% | STASAITPSV
> 75% | TLNDGVVVQV
50 to 75% | VLAENPDIFAV
50 to 75% | VLYGDVEEL
20 to 50% | SLRAFLMPI
50 to 75% | YIDPYKLLPL
> 75% | TLLSEIAEL
